According to IntAct's records for PubMed 27519415:

B1: Glutaredoxin-3 (Homo sapiens), O76003 (parent)
chain: MAAGAAEAAVAAVEEVGSAGQFEELLRLKAKSLLVVHFWAPWAPQCAQMNEVMAELAKELPQVSFVKLEAEGVPEVSEKYEISSVPTFLFFKNSQKIDRLDGAHAPELTKKVQRHASSGSFLPSANEHLKEDLNLRLKKLTHAAPCMLFMKGTPQEPRCGFSKQMVEILHKHNIQFSSFDIFSDEEVRQGLKAYSSWPTYPQLYVSGELIGGLDIIKELEASEELDTICPKAPKLEERLKVLTNKASVMLFMKGNKQEAKCGFSKQILEILNSTGVEYETFDILEDEEVRQGLKAYSNWPTYPQLYVKGELVGGLDIVKELKENGELLPILRGEN
B2: Glutaredoxin-3 (Homo sapiens), O76003 (parent)
chain: B1 chain
partner: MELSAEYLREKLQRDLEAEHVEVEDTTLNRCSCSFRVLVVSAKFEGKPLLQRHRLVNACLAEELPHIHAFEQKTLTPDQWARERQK

Variants of: B1
Settings: with cpin1_human CIAPIN1, Q6FI81
Chain of cpin1_human CIAPIN1, Q6FI81 (Q6FI81 whole entry): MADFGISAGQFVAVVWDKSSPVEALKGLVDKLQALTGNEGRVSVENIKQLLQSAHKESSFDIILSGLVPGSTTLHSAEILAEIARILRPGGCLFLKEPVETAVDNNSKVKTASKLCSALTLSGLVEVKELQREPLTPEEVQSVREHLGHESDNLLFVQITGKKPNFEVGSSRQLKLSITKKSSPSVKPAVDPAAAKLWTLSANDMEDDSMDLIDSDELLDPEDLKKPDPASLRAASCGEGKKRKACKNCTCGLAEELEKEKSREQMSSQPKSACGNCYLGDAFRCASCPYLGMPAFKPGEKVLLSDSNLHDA
For MAAGAAEAAVAAVEEVGSAGQFEELLRLKAKSLLVVHFWAPWAPQCAQMNEVMAELAKELPQVSFVKLEAEGVPEVSEKYEISSVPTFLFFKNSQKIDRLDGAHAPELTKKVQRHASSGSFLPSANEHLKEDLNLRLKKLTHAAPCMLFMKGTPQEPRSGFSKQMVEILHKHNIQFSSFDIFSDEEVRQGLKAYSSDATYPQLYVSGELIGGLDIIKELEASEELDTICPKAPKLEERLKVLTNKASVMLFMKGNKQEAKSGFSKQILEILNSTGVEYETFDILEDEEVRQGLKAYSNDATYPQLYVKGELVGGLDIVKELKENGELLPILRGEN [C159S;W197D;P198A;C261S;W299D;P300A], the “effect of a mutation on the interaction” value was “disrupting interaction strength”.

Variants of: B2
Settings: with bola2_human BOLA2, Q9H3K6
MAAGAAEAAVAAVEEVGSAGQFEELLRLKAKSLLVVHFWAPWAPQCAQMNEVMAELAKELPQVSFVKLEAEGVPEVSEKYEISSVPTFLFFKNSQKIDRLDGAHAPELTKKVQRHASSGSFLPSANEHLKEDLNLRLKKLTHAAPCMLFMKGTPQEPRSGFSKQMVEILHKHNIQFSSFDIFSDEEVRQGLKAYSSDATYPQLYVSGELIGGLDIIKELEASEELDTICPKAPKLEERLKVLTNKASVMLFMKGNKQEAKCGFSKQILEILNSTGVEYETFDILEDEEVRQGLKAYSNWPTYPQLYVKGELVGGLDIVKELKENGELLPILRGEN [C159S;W197D;P198A] was tested, and the “effect of a mutation on the interaction” value was “decreasing interaction strength”. MAAGAAEAAVAAVEEVGSAGQFEELLRLKAKSLLVVHFWAPWAPQCAQMNEVMAELAKELPQVSFVKLEAEGVPEVSEKYEISSVPTFLFFKNSQKIDRLDGAHAPELTKKVQRHASSGSFLPSANEHLKEDLNLRLKKLTHAAPCMLFMKGTPQEPRCGFSKQMVEILHKHNIQFSSFDIFSDEEVRQGLKAYSSWPTYPQLYVSGELIGGLDIIKELEASEELDTICPKAPKLEERLKVLTNKASVMLFMKGNKQEAKSGFSKQILEILNSTGVEYETFDILEDEEVRQGLKAYSNDATYPQLYVKGELVGGLDIVKELKENGELLPILRGEN [C261S;W299D;P300A] was tested, and the “effect of a mutation on the interaction” value was “decreasing interaction strength”. For MAAGAAEAAVAAVEEVGSAGQFEELLRLKAKSLLVVHFWAPWAPQCAQMNEVMAELAKELPQVSFVKLEAEGVPEVSEKYEISSVPTFLFFKNSQKIDRLDGAHAPELTKKVQRHASSGSFLPSANEHLKEDLNLRLKKLTHAAPCMLFMKGTPQEPRSGFSKQMVEILHKHNIQFSSFDIFSDEEVRQGLKAYSSDATYPQLYVSGELIGGLDIIKELEASEELDTICPKAPKLEERLKVLTNKASVMLFMKGNKQEAKSGFSKQILEILNSTGVEYETFDILEDEEVRQGLKAYSNDATYPQLYVKGELVGGLDIVKELKENGELLPILRGEN [C159S;W197D;P198A;C261S;W299D;P300A], the “effect of a mutation on the interaction” value was “disrupting interaction strength”.
